These results are taken from US20210206804A1.

Primed or numbered codes have the meaning given here. The star is where a group is joined. (^19F)FBA = O=C(c1ccc([19F])cc1)*; PEG11′ = not defined here

To fix the notation:
T1: αvβ6 integrin (purified, captured on the ELISA plate), P06756
T1 chain 1: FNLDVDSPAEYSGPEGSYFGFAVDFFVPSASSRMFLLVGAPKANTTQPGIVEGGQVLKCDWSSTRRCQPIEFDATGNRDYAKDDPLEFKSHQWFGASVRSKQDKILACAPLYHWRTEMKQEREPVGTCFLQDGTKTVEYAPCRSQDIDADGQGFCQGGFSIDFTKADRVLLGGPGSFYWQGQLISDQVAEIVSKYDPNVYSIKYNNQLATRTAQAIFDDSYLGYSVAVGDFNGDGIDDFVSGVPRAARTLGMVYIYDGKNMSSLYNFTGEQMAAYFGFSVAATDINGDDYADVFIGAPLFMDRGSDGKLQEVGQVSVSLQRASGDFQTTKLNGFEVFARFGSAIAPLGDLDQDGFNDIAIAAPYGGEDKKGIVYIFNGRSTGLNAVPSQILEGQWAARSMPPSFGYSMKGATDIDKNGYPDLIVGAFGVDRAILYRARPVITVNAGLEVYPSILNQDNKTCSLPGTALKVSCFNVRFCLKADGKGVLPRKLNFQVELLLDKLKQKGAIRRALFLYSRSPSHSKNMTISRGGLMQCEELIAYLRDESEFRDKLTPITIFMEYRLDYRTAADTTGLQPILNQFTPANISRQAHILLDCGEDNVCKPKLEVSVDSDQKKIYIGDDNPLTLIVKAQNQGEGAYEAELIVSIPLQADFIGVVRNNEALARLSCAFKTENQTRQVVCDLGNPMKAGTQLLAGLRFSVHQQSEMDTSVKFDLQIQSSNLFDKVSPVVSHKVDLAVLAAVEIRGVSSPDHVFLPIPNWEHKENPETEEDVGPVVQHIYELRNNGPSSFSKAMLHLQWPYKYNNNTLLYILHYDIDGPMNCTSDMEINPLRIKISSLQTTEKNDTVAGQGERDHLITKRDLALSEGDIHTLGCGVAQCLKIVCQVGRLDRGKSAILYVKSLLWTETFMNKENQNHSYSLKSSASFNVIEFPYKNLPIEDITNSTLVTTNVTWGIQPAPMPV
T1 chain 2: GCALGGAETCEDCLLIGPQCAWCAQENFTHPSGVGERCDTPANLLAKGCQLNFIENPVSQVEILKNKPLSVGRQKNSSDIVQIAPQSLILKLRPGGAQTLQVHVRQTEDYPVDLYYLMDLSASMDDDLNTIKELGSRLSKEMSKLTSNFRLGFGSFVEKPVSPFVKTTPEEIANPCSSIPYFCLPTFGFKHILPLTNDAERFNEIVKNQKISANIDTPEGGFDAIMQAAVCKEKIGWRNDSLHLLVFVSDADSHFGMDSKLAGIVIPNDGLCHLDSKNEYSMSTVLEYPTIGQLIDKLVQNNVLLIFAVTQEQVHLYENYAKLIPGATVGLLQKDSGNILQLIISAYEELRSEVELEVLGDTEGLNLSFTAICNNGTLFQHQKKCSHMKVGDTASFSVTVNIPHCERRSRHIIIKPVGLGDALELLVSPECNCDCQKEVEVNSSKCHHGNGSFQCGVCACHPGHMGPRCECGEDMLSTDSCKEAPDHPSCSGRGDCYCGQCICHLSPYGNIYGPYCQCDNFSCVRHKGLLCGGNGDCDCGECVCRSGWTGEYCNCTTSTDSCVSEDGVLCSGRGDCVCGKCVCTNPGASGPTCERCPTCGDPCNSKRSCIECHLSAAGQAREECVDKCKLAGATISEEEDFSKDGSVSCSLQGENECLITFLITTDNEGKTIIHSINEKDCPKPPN

This experiment addresses T1, αvβ6 integrin (purified, captured on …). In words: competitive ELISA; captured αvβ6; competitor biotinylated fibronectin. (ELISA stands for enzyme-linked immunosorbent assay.)
H-RSDLTPLFK((^19F)FBA)-NH2 [H-…([^19F]FBA)-NH2]: the concentration for half-maximal inhibition (IC50) (commonly the concentration needed to halve the response being measured) was 34 nM.

The molecule {(^19F)FBA-PEG11′}-RSDLTPLF-NH2 [[^19F]FBA-PEG11-RSDLTPLF-NH2] registered an IC50 of 40 nM.

With {(^19F)FBA-PEG11′}-RSDLTPLF-{PEG11′-NH2} [[^19F]FBA-PEG11-RSDLTPLF-PEG11-NH2], the IC50 turned out to be 25 nM.

In turn, {(^19F)FBA}-RSDLTPLF-NH2 [[^19F]FBA-RSDLTPLF-NH2] showed a 50% inhibitory concentration (IC50) of 7 nM.

The molecule {(^19F)FBA}-RSDLTPLF-{PEG11′-NH2} [[^19F]FBA-RSDLTPLF-PEG11-NH2] registered an IC50 of 40 nM.
